# In US20220010021A1 (Sanofi, published 2022):
# B1: Ab0382 (antibody, IgG4, V domains shown)
# VH: QVTLKESGPVLVKPTETLTLTCTVSGFSLNNARVGVSWIRQPPGKALEWLASIWSNDEKSYSTSLKSRLTISKDTSKSQVVLTMTNMDPVDTATYYCARSVVTGGYYYEGMDVWGQGTTVTVSS
# VL: SYVLTQPPSVSVAPGQTARITCGGNNIGSESVHWYQQKPGQAPVLVVDDSDRPSGIPERFSGSNSGNTATLTISRVEAGDEADYYCQVFDGNCVCVVFGGGTKLTVLG
# B2: Ab0383 (antibody, IgG4, V domains shown)
# VH: QVTLKESGPVLVKPTETLTLTCTVSGFSLNNARVGVSWIRQPPGKALEWLAWIFSNDEKSYSTSLKSRLTISKDTSKSQVVLTMTNMDPVDTATYYCARSVVTGGYYYEGMDVWGQGTTVTVSS
# VL: SYVLTQPPSVSVAPGQTARITCGGNNIGSESVHWYQQKPGQAPVLVVDDSDRPSGIPERFSGSNSGNTATLTISRVEAGDEADYYCQVFDGNSVHVVFGGGTKLTVLG
# B3: Ab0389 (antibody, IgG4, V domains shown)
# VH: QVTLKESGPVLVKPTETLTLTCTVSGFSLNNARVGVSWIRQPPGKALEWLASIWSNDEKSYSTSLKSRLTISKDTSKSQVVLTMTNMDPVDTATYYCARSVVTGGYYYEGMDVWGQGTTVTVSS
# VL: CYVLTQPPSVSVAPGQTARITCGGNNIGSESVHWYQQKPGQAPVLVVDDSDRPSGIPERFSGSNSGNTATLTISRVEAGDEADYYCQVFDGNCSHVVFGGGTKLTVLG
# B4: Ab0390 (antibody, IgG4, V domains shown)
# VH: QVTLKESGPVLVKPTETLTLTCTVSGFSLNNARVGVSWIRQPPGKALEWLAHIWSNDEKSYSTSLKSRLTISKDTSKSQVVLTMTNMDPVDTATYYCARSVVTGGYYYEGMDVWGQGTTVTVSS
# VL: SYVLTQPPSVSVAPGQTARITCGGNNIGSESVHWYQQKPGQAPVLVVDDSDRPSGIPERFSGSNSGNTATLTISRVEAGDEADYYCQVFDGNCSCVVFGGGTKLTVLG
# B5: Ab0391 (antibody, IgG4, V domains shown)
# VH: QVTLKESGPVLVKPTETLTLTCTVSGFSLNNARVGVSWIRQPPGKALEWLASIWSNDEKSYSTSLKSRLTISKDTSKSQVVLTMTNMDPVDTATYYCARSVVTGGYYYEGMDVWGQGTTVTVSS
# VL: SYVLTQPPSVSVAPGQTARITCGGNNIGSESVHWYQQKPGQAPVLVVDDSDRPSGIPERFSGSNSGNTATLTISRVEAGDEADYYCQVFDGNCSCVVFGGGTKLTVLG
# B6: Ab0392 (antibody, IgG4, V domains shown)
# VH: QVTLKESGPVLVKPTETLTLTCTVSGFSLNNARVGVSWIRQPPGKALEWLAWIFSNDEKSYSTSLKSRLTISKDTSKSQVVLTMTNMDPVDTATYYCARSVVTGGYYYEGMDVWGQGTTVTVSS
# VL: SYVLTQPPSVSVAPGQTARITCGGNNIGSESVHWYQQKPGQAPVLVVDDSDRPSGIPERFSGSNSGNTATLTISRVEAGDEADYYCQVFDGNSSHVVFGGGTKLTVLG
# B7: Ab0393 (antibody, IgG4, V domains shown)
# VH: QVTLKESGPVLVKPTETLTLTCTVSGFSLNNARVGVSWIRQPPGKALEWLAWIFSNDEKSYSTSLKSRLTISKDTSKSQVVLTMTNMDPVDTATYYCARSVVTGGYYYEGMDVWGQGTTVTVSS
# VL: SYVLTQPPSVSVAPGQTARITCGGNNIGSESVHWYQQKPGQAPVLVVDDSDRPSGIPERFSGSNSGNTATLTISRVEAGDEADYYCQVFDGNCSCVVFGGGTKLTVLG
# B8: Ab0394 (antibody, IgG4, V domains shown)
# VH: QVTLKESGPVLVKPTETLTLTCTVSGFSLNNARVGVSWIRQPPGKALEWLAWIFSNDEKSYSTSLKSRLTISKDTSKSQVVLTMTNMDPVDTATYYCARSVVTGGYYYEGMDVWGQGTTVTVSS
# VL: CYVLTQPPSVSVAPGQTARITCGGNNIGSESVHWYQQKPGQAPVLVVDDSDRPSGIPERFSGSNSGNTATLTISRVEAGDEADYYCQVFDGNCSHVVFGGGTKLTVLG
# B9: Ab0396 (antibody, IgG4, V domains shown)
# VH: QVTLKESGPVLVKPTETLTLTCTVSGFSLNNARVGVSWIRQPPGKALEWLASIWSNDEKSYSTSLKSRLTISKDTSKSQVVLTMTNMDPVDTATYYCARSVVTGGYYYEGMDVWGQGTTVTVSS
# VL: SYVLTQPPSVSVAPGQTARITCGGNNIGSESVHWYQQKPGQAPVLVVDDSDRPSGIPERFSGSNSGNTATLTISRVEAGDEADYYCQVFDGNSAHVVFGGGTKLTVLG
# B10: Ab0397 (antibody, IgG4, V domains shown)
# VH: QVTLKESGPVLVKPTETLTLTCTVSGFSLNNARVGVSWIRQPPGKALEWLAHIWSNDEKSYSTSLKSRLTISKDTSKSQVVLTMTNMDPVDTATYYCARSVVTGGYYYEGMDVWGQGTTVTVSS
# VL: CYVLTQPPSVSVAPGQTARITCGGNNIGSESVHWYQQKPGQAPVLVVDDSDRPSGIPERFSGSNSGNTATLTISRVEAGDEADYYCQVFDGNCAHVVFGGGTKLTVLG
# B11: Ab0398 (antibody, IgG4, V domains shown)
# VH: QVTLKESGPVLVKPTETLTLTCTVSGFSLNNARVGVSWIRQPPGKALEWLASIWSNDEKSYSTSLKSRLTISKDTSKSQVVLTMTNMDPVDTATYYCARSVVTGGYYYEGMDVWGQGTTVTVSS
# VL: CYVLTQPPSVSVAPGQTARITCGGNNIGSESVHWYQQKPGQAPVLVVDDSDRPSGIPERFSGSNSGNTATLTISRVEAGDEADYYCQVFDGNCAHVVFGGGTKLTVLG
# B12: Ab0399 (antibody, IgG4, V domains shown)
# VH: QVTLKESGPVLVKPTETLTLTCTVSGFSLNNARVGVSWIRQPPGKALEWLAHIWSNDEKSYSTSLKSRLTISKDTSKSQVVLTMTNMDPVDTATYYCARSVVTGGYYYEGMDVWGQGTTVTVSS
# VL: SYVLTQPPSVSVAPGQTARITCGGNNIGSESVHWYQQKPGQAPVLVVDDSDRPSGIPERFSGSNSGNTATLTISRVEAGDEADYYCQVFDGNCACVVFGGGTKLTVLG
# B13: Ab0400 (antibody, IgG4, V domains shown)
# VH: QVTLKESGPVLVKPTETLTLTCTVSGFSLNNARVGVSWIRQPPGKALEWLASIWSNDEKSYSTSLKSRLTISKDTSKSQVVLTMTNMDPVDTATYYCARSVVTGGYYYEGMDVWGQGTTVTVSS
# VL: SYVLTQPPSVSVAPGQTARITCGGNNIGSESVHWYQQKPGQAPVLVVDDSDRPSGIPERFSGSNSGNTATLTISRVEAGDEADYYCQVFDGNCACVVFGGGTKLTVLG
# B14: Ab0401 (antibody, IgG4, V domains shown)
# VH: QVTLKESGPVLVKPTETLTLTCTVSGFSLNNARVGVSWIRQPPGKALEWLAWIFSNDEKSYSTSLKSRLTISKDTSKSQVVLTMTNMDPVDTATYYCARSVVTGGYYYEGMDVWGQGTTVTVSS
# VL: SYVLTQPPSVSVAPGQTARITCGGNNIGSESVHWYQQKPGQAPVLVVDDSDRPSGIPERFSGSNSGNTATLTISRVEAGDEADYYCQVFDGNSAHVVFGGGTKLTVLG
# B15: Ab0402 (antibody, IgG4, V domains shown)
# VH: QVTLKESGPVLVKPTETLTLTCTVSGFSLNNARVGVSWIRQPPGKALEWLAWIFSNDEKSYSTSLKSRLTISKDTSKSQVVLTMTNMDPVDTATYYCARSVVTGGYYYEGMDVWGQGTTVTVSS
# VL: SYVLTQPPSVSVAPGQTARITCGGNNIGSESVHWYQQKPGQAPVLVVDDSDRPSGIPERFSGSNSGNTATLTISRVEAGDEADYYCQVFDGNCACVVFGGGTKLTVLG
# B16: Ab0403 (antibody, IgG4, V domains shown)
# VH: QVTLKESGPVLVKPTETLTLTCTVSGFSLNNARVGVSWIRQPPGKALEWLAWIFSNDEKSYSTSLKSRLTISKDTSKSQVVLTMTNMDPVDTATYYCARSVVTGGYYYEGMDVWGQGTTVTVSS
# VL: CYVLTQPPSVSVAPGQTARITCGGNNIGSESVHWYQQKPGQAPVLVVDDSDRPSGIPERFSGSNSGNTATLTISRVEAGDEADYYCQVFDGNCAHVVFGGGTKLTVLG
# B17: Ab0404 (antibody, IgG4, V domains shown)
# VH: QVTLKESGPVLVKPTETLTLTCTVSGFSLNNARVGVSWIRQPPGKALEWLAHIWSNDEKSYSTSLKSRLTISKDTSKSQVVLTMTNMDPVDTATYYCARSVVTGGYYYEGMDVWGQGTTVTVSS
# VL: SYVLTQPPSVSVAPGQTARITCGGNNIGSESVHWYQQKPGQAPVLVVDDSDRPSGIPERFSGSNSGNTATLTISRVEAGDEADYYCQVFDGNSTHVVFGGGTKLTVLG
# B18: Ab0405 (antibody, IgG4, V domains shown)
# VH: QVTLKESGPVLVKPTETLTLTCTVSGFSLNNARVGVSWIRQPPGKALEWLASIWSNDEKSYSTSLKSRLTISKDTSKSQVVLTMTNMDPVDTATYYCARSVVTGGYYYEGMDVWGQGTTVTVSS
# VL: SYVLTQPPSVSVAPGQTARITCGGNNIGSESVHWYQQKPGQAPVLVVDDSDRPSGIPERFSGSNSGNTATLTISRVEAGDEADYYCQVFDGNSTHVVFGGGTKLTVLG
# B19: Ab0406 (antibody, IgG4, V domains shown)
# VH: QVTLKESGPVLVKPTETLTLTCTVSGFSLNNARVGVSWIRQPPGKALEWLASIWSNDEKSYSTSLKSRLTISKDTSKSQVVLTMTNMDPVDTATYYCARSVVTGGYYYEGMDVWGQGTTVTVSS
# VL: CYVLTQPPSVSVAPGQTARITCGGNNIGSESVHWYQQKPGQAPVLVVDDSDRPSGIPERFSGSNSGNTATLTISRVEAGDEADYYCQVFDGNCTHVVFGGGTKLTVLG
# B20: Ab0408 (antibody, IgG4, V domains shown)
# VH: QVTLKESGPVLVKPTETLTLTCTVSGFSLNNARVGVSWIRQPPGKALEWLAWIFSNDEKSYSTSLKSRLTISKDTSKSQVVLTMTNMDPVDTATYYCARSVVTGGYYYEGMDVWGQGTTVTVSS
# VL: SYVLTQPPSVSVAPGQTARITCGGNNIGSESVHWYQQKPGQAPVLVVDDSDRPSGIPERFSGSNSGNTATLTISRVEAGDEADYYCQVFDGNSTHVVFGGGTKLTVLG
# B21: Ab0410 (antibody, IgG4, V domains shown)
# VH: QVTLKESGPVLVKPTETLTLTCTVSGFSLNNARVGVSWIRQPPGKALEWLAHIFSNDEKSYSTSLKSRLTISKDTSKSQVVLTMTNMDPVDTATYYCARSVVTGGYYYEGMDVWGQGTTVTVSS
# VL: SYVLTQPPSVSVAPGQTARITCGGNNIGSESVHWYQQKPGQAPVLVVDDSDRPSGIPERFSGSNSGNTATLTISRVEAGDEADYYCQVYDGNSSHVVFGGGTKLTVLG
# B22: Ab0328 (antibody, IgG4, V domains shown)
# VH: QVTLKESGPVLVKPTETLTLTCTVSGFSLNNARVGVSWIRQPPGKALEWLAHIFSNDEKSYSTSLKSRLTISKDTSKSQVVLTMTNMDPVDTATYYCARSVVTGGYYYEGMDVWGQGTTVTVSS
# VL: SYVLTQPPSVSVAPGQTARITCGGSNIGSESVHWYQQKPGQAPVLVVYYASDRPSGIPERFSGSNSGNTATLTISRVEAGDEADYYCQVWAGSSDHVVFGGGTKLTVLG
# Molecular target: human FGFR1c + KLB receptor complex on HEK293 iLite FGF21 reporter cells (human, UniProt P11362 22-822; Q86Z14 1-1044)
# Sequence (P11362 22-822, chain 1 of 2): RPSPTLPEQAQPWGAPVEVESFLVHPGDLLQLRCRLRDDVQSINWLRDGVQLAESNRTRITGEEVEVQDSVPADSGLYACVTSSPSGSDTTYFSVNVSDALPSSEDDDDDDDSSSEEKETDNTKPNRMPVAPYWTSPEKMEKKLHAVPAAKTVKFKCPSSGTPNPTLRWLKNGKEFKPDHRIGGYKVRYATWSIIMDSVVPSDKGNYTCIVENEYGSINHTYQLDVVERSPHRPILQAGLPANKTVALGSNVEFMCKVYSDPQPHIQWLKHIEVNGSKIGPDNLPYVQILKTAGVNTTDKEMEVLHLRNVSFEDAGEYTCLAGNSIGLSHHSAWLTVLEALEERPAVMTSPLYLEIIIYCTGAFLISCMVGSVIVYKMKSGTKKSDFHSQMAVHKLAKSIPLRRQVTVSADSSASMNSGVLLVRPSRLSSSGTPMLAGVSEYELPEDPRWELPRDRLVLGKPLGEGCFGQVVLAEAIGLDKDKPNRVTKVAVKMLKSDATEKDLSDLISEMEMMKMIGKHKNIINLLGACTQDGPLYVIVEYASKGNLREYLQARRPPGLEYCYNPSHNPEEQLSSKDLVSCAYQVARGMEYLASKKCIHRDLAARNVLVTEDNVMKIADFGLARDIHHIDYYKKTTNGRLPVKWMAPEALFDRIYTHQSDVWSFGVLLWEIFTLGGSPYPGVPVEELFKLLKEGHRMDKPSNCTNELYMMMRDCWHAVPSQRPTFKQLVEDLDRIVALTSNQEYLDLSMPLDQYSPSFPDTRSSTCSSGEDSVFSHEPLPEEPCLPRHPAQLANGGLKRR
# Sequence (Q86Z14 whole entry, chain 2 of 2): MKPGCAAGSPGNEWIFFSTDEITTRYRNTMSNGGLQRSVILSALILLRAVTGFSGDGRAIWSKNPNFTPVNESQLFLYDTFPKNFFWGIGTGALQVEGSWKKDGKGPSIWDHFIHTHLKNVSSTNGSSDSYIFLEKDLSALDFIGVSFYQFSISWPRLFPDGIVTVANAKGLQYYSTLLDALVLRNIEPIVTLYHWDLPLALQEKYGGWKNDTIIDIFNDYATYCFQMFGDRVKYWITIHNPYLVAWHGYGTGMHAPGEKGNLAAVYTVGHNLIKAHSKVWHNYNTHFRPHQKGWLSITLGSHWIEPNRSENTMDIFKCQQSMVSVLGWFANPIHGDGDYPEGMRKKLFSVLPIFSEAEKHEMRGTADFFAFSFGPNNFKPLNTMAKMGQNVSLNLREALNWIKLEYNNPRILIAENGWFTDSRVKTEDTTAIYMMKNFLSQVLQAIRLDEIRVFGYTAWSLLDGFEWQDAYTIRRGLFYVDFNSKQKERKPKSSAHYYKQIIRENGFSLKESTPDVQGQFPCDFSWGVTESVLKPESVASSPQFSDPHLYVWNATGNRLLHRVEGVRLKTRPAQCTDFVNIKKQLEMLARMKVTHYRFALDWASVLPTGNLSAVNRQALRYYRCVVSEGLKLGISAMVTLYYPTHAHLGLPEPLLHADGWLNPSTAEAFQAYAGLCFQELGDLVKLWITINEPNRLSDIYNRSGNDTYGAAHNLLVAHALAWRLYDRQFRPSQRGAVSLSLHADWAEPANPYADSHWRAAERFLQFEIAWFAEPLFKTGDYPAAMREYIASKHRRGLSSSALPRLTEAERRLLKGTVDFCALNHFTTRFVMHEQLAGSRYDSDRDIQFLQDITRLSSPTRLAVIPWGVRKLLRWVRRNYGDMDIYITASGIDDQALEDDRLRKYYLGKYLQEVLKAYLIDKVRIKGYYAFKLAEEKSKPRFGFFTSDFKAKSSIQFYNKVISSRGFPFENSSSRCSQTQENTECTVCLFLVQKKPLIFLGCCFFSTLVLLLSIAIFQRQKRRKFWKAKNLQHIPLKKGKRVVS
# Experiment: cell-based or functional assay
Binder,EC50 [nM],Emax [%]
B1,> 100,
B2,> 100,
B3,> 100,
B4,> 100,
B5,> 100,
B6,> 100,
B7,> 100,
B8,> 100,
B9,> 100,
B10,> 100,
B11,> 100,
B12,> 100,
B13,> 100,
B14,> 100,
B15,> 100,
B16,> 100,
B17,> 100,
B18,> 100,
B19,> 100,
B20,> 100,
B21,> 100,
B22,4.11,421
